From paper PMC3880866 (Nature structural & molecular biology, 2012)
Where a chain is given by its changes, count along the chain named. In names and notes the source's numbering stands. One block for each binder: values may come before it.

Columns and labels:
SEC = biological target: the molecule itself; test: SEC
UbcH5B = UbcH5B (UniProt P62837 1-147); test: SPR
[1] = biological target: UbcH5BS~Ub (UbcH5B C85S covalently ester-linked to the C-terminus of ubiquitin) (UniProt P62837;P0CG48, C85S); test: SPR
UbcH5BS D117A~Ub = UbcH5BS D117A~Ub (UniProt P62837;P0CG48, C85S | D117A); test: SPR

B1: BIRC7 I284A (as in size exclusion chromatography and ubiquitination assays) (enzyme)
chain: MGPKDSAKCLHRGPQPSHWAAGDGPTQERCGPRSLGSPVLGLDTCRAWDHVDGQILGQLRPLTEEEEEEGAGATLSRGPAFPGMGSEELRLASFYDWPLTAEVPPELLAAAGFFHTGHQDKVRCFFCYGGLQSWKRGDDPWTEHAKWFPSCQFLLRSKGRDFVHSVQETHSQLLGSWDPWEEPEDAAPVAPSVPASGYPELPTPRREVQSESAQEPGGVSPAEAQRAWWVLEPPGARDVEAQLRRLQEERTCKVCLDRAVSIVFVPCGHLVCAECAPGLQLCPACRAPVRSRVRTFLS
stoichiometry N (SEC): 2

B2: BIRC7 F296H (as in size exclusion chromatography and ubiquitination assays) (enzyme)
chain: B1 chain with A284I, F296H
stoichiometry N (SEC): 2

B3: BIRC7 R286A (as in size exclusion chromatography and ubiquitination assays) (enzyme)
chain: B1 chain with A284I, R286A
stoichiometry N (SEC): 2

B5: GST-BIRC3(541–C) (domain or fragment)
chain: DLPVEEQLRRLQEERTCKVCMDKEVSIVFIPCGHLVVCKDCAPSLRKCPICRSTIKGTVRTFLS
Kd [1]: 5 µM

The remaining lines, values ahead:

Kd (UbcH5B): 91 µM
B4: RNF2(1–114)–BMI1(1–109) (complex)
chain 1: MSQAVQTNGTQPLSKTWELSLYELQRTPQEAITDGLEIVVSPRSLHSELMCPICLDMLKNTMTTKECLHRFCADCIITALRSGNKECPTCRKKLVSKRSLRPDPNFDALISKIY
chain 2: MHRTTRIKITELNPHLMCVLCGGYFIDATTIIECLHSFCKTCIVRYLETSKYCPICDVQVHKTRPLLNIRSDKTLQDIVYKLVPGLFKNEMKRRRDFYAAHPSADAANG

Kd [1]: 130 µM
B6: MDM2(428–C)–MDMX(428–C) (complex)
chain 1: SSLPLNAIEPCVICQGRPKNGCIVHGKTGHLMACFTCAKKLKKRNKPCPVCRQPIQMIVLTYFP
chain 2: EDCQNLLKPCSLCEKRPRDGNIIHGRTGHLVTCFHCARRLKKAGASCPICKKEIQLVIKVFIA

Kd [1]: 136 µM
B7: GST-BIRC7(239–C) (domain or fragment)
chain: VEAQLRRLQEERTCKVCLDRAVSIVFVPCGHLVCAECAPGLQLCPICRAPVRSRVRTFLS

Kd [1]: 181 µM
Kd (UbcH5BS D117A~Ub): 191 µM
B8: GST-BIRC7 full length (enzyme)
chain: B1 chain with A284I
